Measurements as given in patent US20200289575A1 (NSAGE, published 2020).

Biological target: AGE-albumin (advanced glycation end-product albumin), Sigma-Aldrich
Experiment: cell-based or functional assay

B1: sRAGE (soluble Receptor for Advanced Glycation End-products), cat. RD172116100, Biovendor (receptor)
chain: MRGSHHHHHHGMASAQNITARIGEPLVLKCKGAPKKPPQRLEWKLNTGRTEAWKVLSPQGGGPWDSVARVLPNGSLFLPAVGIQDEGIFRCQAMNRNGKETKSNYRVRVYQIPGKPEIVDSASELTAGVPNKVGTCVSEGSYPAGTLSWHLDGKPLVPNEKGVSVKEQTRRHPETGLFTLQSELMVTPARGGDPRPTFSCSFSPGLPRHRALRTAPIQPRVWEPVPLEEVQLVVEPEGGAVAPGGTVTLTCEVPAQPSPQIHWMKDGVPLPLPPSPVLILPEIGPQDQGTYSCVATHSSHGPQESRAVSISIIEPGEEGPTAGEGFDKVREAEDSPQHM
- cell viability of HT22 cells by MTT assay (percent relative to control): 101%
